Here are results for 70 sequences from the domain aggregation screens of Martell et al. (2025).
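Note: 20 min heating vs room temperature control held 20 min.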

The series in a line: soluble fraction after stress (log2 fold change); higher = more stays soluble; pooled small domains, quantitative proteomics. The conditions noted are these: stress: 75 degC.
As for “HMINIGANIRAIRKQKNIKQVDLVRLLQLEGVEITRETLVKIESGVQHIKASQLRGIRDALGTTYDELL”, the “soluble fraction (log2)” value is -2.88. To “HMINITALVKQLGGVDISKFNSAFKLLQQGKPLNTISNKVMADTFVALMKNSDEALNTKFRAAFKKI” belongs -0.441; to “HMINKIANLSAELRMEGLPVSIRSTQAAVKIYMDLGGDDRNLLKTALMSIYVKDRYDIPKFNKVFEKLFA”, -1.66; to “HMINKQPKDYEYFLEKWHFTQTEKHQLHNLILKLNIRYPNKDFLKITENLDNGKLVLKKLEERLSKT”, -1.33.

With “HMINNINKLPETQFIKLFANIFENSQFIAVALYKKKGDGFSDFKDLINKIMDIFENTTKEKKLKILNA”, the “soluble fraction (log2)” value was -0.381.

With “HMINPASEKQLSFANSLIAKKEGGTETLNHYLHNRKVSSLEELDRKDVSEIINALKFAKEVT”, the “soluble fraction (log2)” value was 0.641. Regarding “HMINRPVYVPLYTNLDVKDAAEIAEKLEENNIAYKLEDQGETILVNPEQKYKVRLMLAQEGLPKG”, the “soluble fraction (log2)” value came to 0.0786. Turning to “HMINSFDYLQAIFTELMKSQSKMTNQDAAKRLFMQGKVAVSNRDREGLRMVLAQLVTLLPKEELGGLSTVS”, the “soluble fraction (log2)” value was -1.38. As for “HMIPESVQGIEEFLATGALKGIGKKTAAAIVHKFGKDTLRIMEEEPERLAEVSGIGEKKAAAIGEAFALH”, the “soluble fraction (log2)” value is 0.134.

“HMIPNPMTDRELEVLGLLASGKTYKQVARALDLSQSTVRNHLHNVYHKLNVVDRAQAVIVSRENGW”: the “soluble fraction (log2)” value is -0.379. Take “HMIPPGTITIEGAITKVPVFLDGKQIGTVPLTKEDVEPGKYRIRVLGVGRVITIDPGEKENVLFSGEDLGL”: the “soluble fraction (log2)” value was -0.0563. Turning to “HMIPTDPNGDLIKILYTSDQINELYARAKLNDVEDLFLDWTKNVLGESNFEETGPTKNEYLIPQ”, the “soluble fraction (log2)” value is -0.0775. With “HMIPTTELAERLGTTKVANMIMLGALIKASGIISFDDMIKNLGELLGEGKAKLIKLNKEALEVGFN”, the “soluble fraction (log2)” value amounted to 0.139. To “HMIPYSDLLKLLSNDAMPKFRNKDGWAKIHALETYLASRWSYQEYGFASFTVLLETVHNAEIRNDSVRLM” belongs -0.479; to “HMIQTMVVTDLKNGTIFKENGHPFIVLKYEHIKVSRGSAQVRVKMKNLITGQVLEKSWQSTAHVDDT”, -3.24. Turning to “HMIRMPNLIGLSVRSAEQQLVIAGLKKGIVHQVNDPRLKEVIDMQALGHKITAGSSIPKGTEVDLYIGNGT”, the “soluble fraction (log2)” value is -0.944.

In the case of “HMISAVDLMAARRKIEAGITNLQPGQAFTLPNKVGWVKRMTGGSYFIQGNGGYTASVRTISEAIQAAAMLL”, the “soluble fraction (log2)” value is -3.11. In the case of “HMISDQENDLNLKHLFDTADQNKDGLILESELKMLMTNLEINKETYDTVMKQITPAGMDYKTFSSL”, the “soluble fraction (log2)” value amounted to 0.293.

Turning to “HMISFLNFVRKEIDASQLKDSTKQNHLTTIGLLQSFKPSIEFKDLNYNFITSFEKYLYDAGYQM”, the “soluble fraction (log2)” value amounted to 0.0114. To “HMISKQQRQALILDIIQKQSITSQEALLTELQRHHVMTTQTTVSRDIRALGIVRIKDVNGELSYQQLQ” belongs -2.69; to “HMISKRFQIDEDNSNKRIDIFLTQSLDSISRGIVQQLILENKVEVNGGPVKRNYLIKIGDVIDVKIDL”, -2.96; to “HMISKTFEINEDNINNRLDIFLANQFDNLSRGIVQKLIESHSVSVSGNFVEKDYKLKLGDIIDVEINLS”, -1.64.

With “HMISLNEDQKLAILNEWNQRPDDPPFIKELIELVFPDIPEEAKTGRSRYGIAIKKFLAEKSLQAKV”, the “soluble fraction (log2)” value is -0.197. To “HMISLPSYIREEATEVYNRLHDLGLEYTSLDVNDDSIPKGYVVRTVPEAGASVPAGQVVTVYVSLG” belongs -0.829; to “HMISQLRGKVLGTDRDALVIDVGGVGFRVSATAGARALAGQSGNEARLFTEMVVREDSIDLFGF”, 0.0812; to “HMISRKIKELRLSHDLTQKDLADYLNLTPKMVSFYELGQRVPPSDIILKLAEKFHVSTDYLLGNEDRP”, -0.196. “HMITDNEFLRIVSFLKQRYGIDMSQKKVIMNGRLENYLKSGGWSSFDEYMNDVEKDTSGDLEKTLVNFLTT”: the “soluble fraction (log2)” value was -1.38. To “HMITETIGANIKTLRDKFRMSQQDLASKMNTARPVISNWENGKTEPSSSQLLKLAKIFDTSTDKILGNV” belongs 0.0689; to “HMITKEDVANKKVNLLFFGNFHKMKLPDFEWGITEMMQDRDYLYGSLTKDLYFLGLVLDRKYKI”, 0.241. The same measure for “HMITKENYLEKIKEIKVNEFPASMRELYDFFNEATRNGTDWSAYEEGNVKYVVDAYLERLNLLYKSN”: -1.01. To “HMITLYIHNLEEVGKRLDHYLVSNLDDHSRSQIQSWIRSGSILVNDRSVKTGYSLELNDQILINPPK” belongs -2.51; to “HMITNSTEIEAMIDSLIKENPEQAEQYRNGNTKVVGWFVGQMMKASKGKANPQVVGDLLAQKLVG”, 0.0621; to “HMIVAHEINRHLGESDQPVEIPDNRREGAVAELLKTFNNDDAFREMDDGKYEVALDGEKVREAARSLLA”, 0.0479.

On to “HMIVDARNREINLGSHVRYVDTGTVGEVTDSKVENDASWVKIDKTNLWYLANKLELLNDEDFKT”, for which the “soluble fraction (log2)” value is 0.0789.

On to “HMIVDINDVRIDKYIADNTDYSRNLILNLIKNGDILVNDSKIKPSYKVKQGDKITINNVKTD”, for which the “soluble fraction (log2)” value is 0.332. In the case of “HMIVKQPDIRKQELLDIGVRLYFEAGEKGVSIQQVVKQAGVATGLFYYYFSSKDAFLDEALNDYID”, the “soluble fraction (log2)” value came to 0.0613. To “HMIVLPGEELEVHIVQEGKEDGQGVAYLDDGTMVVVEGGRPYVDSFAYVAVTRVLQTGAGRIIFAHPTR” belongs -2.54; to “HMIYNSGTTDSRGEAIVGGYLVTVTDTDTKDPVANAAVTLHKDNSISIRLPNSRLLDYADQTTVTVQLV”, 0.0328. As for “HMKAEKEIEKIKFTIYNEFKRKQEENHFLPPWDGTKMLRQFVLGVVANNPKYQHVNTDILYRDLLLLYYQ”, the “soluble fraction (log2)” value is -2. To “HMKAFTKKELQDLVLNIFRASPTTNYNYKQLYKLIRGKDPEIKTLIIAVLLGLEKNGSILQMRPGKYKFS” belongs 0.97. For the sequence “HMKALDTVLSEIPGLGPVRIKQLLKVFGSVDAIRKASLQDLQQIEGIGPKLAQTIYEYFHQP”, the “soluble fraction (log2)” value was determined as 0.898. The same measure for “HMKALYNLDYEKPLSGSYYTETTARAAVPTDIRKLGLIITYKTDATTNITEQFVGSSISAWTTSGNWKSLG”: -1.77; for “HMKAPPLTDREKEILRWVAAGLQNKEIAHKLGISLATVRNHIHNILEKLDVHSKLEAVSLAFRQGWVS”: -0.356; for “HMKASEMKKGQTIKIDGVLYVIVDFQHVKLSKGGAVYQTKLRNLAAGGIRDIRIRAEEVLEDA”: -2.97. To “HMKDITPASEDQLKAITDLMLKVNGEWSDAFFTFISKKFNHQISSPEQLTTFEANTIIDMLRKKAEG” belongs -0.601; to “HMKDLDSLSQEAKSVYAVFSDKPIHIDDIKRKTGLDFSKLFKAVTELELAELISSGEGKMYSL”, -0.0075; to “HMKDLTIRQQQFLNYIKDHLSLTGFPPTRSDIANEMGFKSPNAAEDHLRALARKGAIEIVPGTSRGIRLP”, -0.419.

In the case of “HMKDMKISTKNLLQELAKNYPDQTSFRKNVIETTARAMGYTGKDFYPLLTTDNRVKIGTYDLATFLRSI”, the “soluble fraction (log2)” value was -0.969.

“HMKDNPNETFERIAGKITRTLRSGPVRIQQLDLLFSESAGKVVDVLRAMAENGEVLIKDDTIQLNGNN”: the “soluble fraction (log2)” value is -0.0108. To “HMKDTFHNLSEEKRERIIRAALGEFAASGYEKATLDGVVQAAGISKGGLYEYISSKEDLFRYLLEYSYD” belongs -1.82; to “HMKDTNENLMKMLALLIHAAKIDENYSDEEKELIVNFAEMSSKENLNREQILSIIKSAEEYE”, -1.24; to “HMKEADVRKNEILDAAGILFSEKGYDNTSVTDIMNAVGFAKGTLYHHFKSKEDIMDALIKRQTD”, -0.125. The same measure for “HMKEAISIYPNPVKDILTIRGMDETSGVSFKLYDVTGNLLLESTHSELDMSGLNRGVYFLDIAGDVRKVVK”: -0.342; for “HMKEEDLPREYTDILGNSVHERLNIMIHDIIEHSQDKPEVAMSPEREEAMHGLRRWMFDHVYH”: -0.168; for “HMKEEVEILGGKATIYTNDYGVWQFRLWLTTDNKYVRKSLRTKVKDYAITEGEKLYIQIRSDIEKGIKYY”: -1.13. Regarding “HMKEEVSVPDIKGMTYEEAEAKLAKYDLEIEKGETVKASEQYEEGQISSQEPEAGSKVKEGSTIVVDVVE”, the “soluble fraction (log2)” value is 0.185. As to “HMKEFSFNGGKVIMNYEADRIQIKHDSRPNQEVITLMKRNGFKWSPTNQAWQRQITGNAIYVTKNLLKS”, the “soluble fraction (log2)” value was -2.33. To “HMKEGGGYGQLRLKEAAIQHAFDLQNALQFIAERGYQAHENTTLKEAANALNLKPIELLELLKSSQ” belongs 0.0627; to “HMKEIDVPNVVGASENAARKLLESYGFQVEVQWENGERVDNAVVKSYSPNGSAKSGSTVTIVLGT”, 0.0998. On to “HMKEINFTIEESAKGRLDKVIAENVADLTRSQVQSLIKKGQILVNDAPTTNRYQVKPNDQVIIKLPDPV”, for which the “soluble fraction (log2)” value was 0.396. To “HMKEKLGEFENVFLSVDELQKLKSKLGAETESYIERLSNYIASSGKKYKSHYATILSWTQKDTK” belongs -0.88. Consider “HMKELASKYEISEYMKFLIENLDKSNFFYPIEKRESMINNIFSIYSKADLSKKELNMLWGMLKKLR”, for which the “soluble fraction (log2)” value is -2.31. Regarding “HMKELTELIEKIKLRRLELGLSYQELSDLTGINKSTLQRYETGFIKKVPINQVQIIAKALNVTPGYLMG”, the “soluble fraction (log2)” value was -0.72.

In the case of “HMKEMTAKQIDMFSDKLSKLESFQSHYIADAGVSVTEYKQAIAAKLQDQFYVEAWGKYLADVGFT”, the “soluble fraction (log2)” value was -0.393. To “HMKEPIYQTILSALILELNTNHFRKNDPFYSESELRKKYQVSSTTVVRVLNMLADQGYIYRIQGKGSFVSK” belongs -2.62.

On to “HMKESFAQLFSLLTPTEQKVAALISQGFSNKDIAAKMFISLSTVKTHTNHIFAKMGVANRNALVAKVNN”, for which the “soluble fraction (log2)” value was -1.46.

In the case of “HMKESRFDYDAVLLYSDKDSITEVKDAVQHLTKEFGSVFTTKKIPEKATFGKLFRIEKGEVNIIEDN”, the “soluble fraction (log2)” value amounted to 0.367.

Regarding “HMKESRLFRILYYLLQHKKATAPELAEEFEVSVRTIYRDIDYISSAGVPIYATQGKDGGIAILDSF”, the “soluble fraction (log2)” value is -0.777. Take “HMKETLSINSTDFEVRRSSRRKRISVGFDTGTETFFIAAPTKLAGTDILRILGPQISRLMDRLT”: the “soluble fraction (log2)” value was -2.22. The same measure for “HMKEVDERPWGKYEVLLDAPDVKVKRITVNPGQRLSYQYHEKRAEVWTVVSGILTIILEDDKLFRG”: 0.17.
